Experimental data published in article PMC6446880.

Target: T1, IRF3 K359A (IRF3 (K359A)-his) (UniProt P70671 1-419, K359A)
T1 sequence: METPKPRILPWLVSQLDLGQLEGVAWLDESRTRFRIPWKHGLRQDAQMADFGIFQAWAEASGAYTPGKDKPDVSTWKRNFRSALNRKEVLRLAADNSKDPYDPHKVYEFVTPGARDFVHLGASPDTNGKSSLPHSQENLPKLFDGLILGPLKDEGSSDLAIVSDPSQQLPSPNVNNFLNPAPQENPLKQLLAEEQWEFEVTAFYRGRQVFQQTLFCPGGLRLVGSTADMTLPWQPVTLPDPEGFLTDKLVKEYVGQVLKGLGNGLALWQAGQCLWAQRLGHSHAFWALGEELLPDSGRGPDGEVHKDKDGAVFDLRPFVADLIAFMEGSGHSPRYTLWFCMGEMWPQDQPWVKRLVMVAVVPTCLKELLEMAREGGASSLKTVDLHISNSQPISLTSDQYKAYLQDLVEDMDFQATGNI
Assay: EMSA

B1: IFN-β (Ifnb) promoter probe (dsDNA)
DNA 1: GAAAACTGAAAGGGAGAACTGAAAGT
DNA 2: ACTTTCAGTTCTCCCTTTCAGTTTTC
B1: binds.

B2: IFN-α (Ifna4) promoter probe (dsDNA)
DNA 1: GAAAGTGAAAAGAGAATTGGAAAGC
DNA 2: GCTTTCCAATTCTCTTTTCACTTTC
B2: binds.
